Drawing on patent publication US20060008846A1 (RESEARCH DEVELOPMENT FOUNDATION, published 2006), this text covers % Activin Activity (A3-luciferase assay in 293T cells) (% of wild type activin-A) for 28 molecules.

This experiment addresses T1, ALK4 (activin type I receptor) (UniProt P36896).
T1 sequence (looked up): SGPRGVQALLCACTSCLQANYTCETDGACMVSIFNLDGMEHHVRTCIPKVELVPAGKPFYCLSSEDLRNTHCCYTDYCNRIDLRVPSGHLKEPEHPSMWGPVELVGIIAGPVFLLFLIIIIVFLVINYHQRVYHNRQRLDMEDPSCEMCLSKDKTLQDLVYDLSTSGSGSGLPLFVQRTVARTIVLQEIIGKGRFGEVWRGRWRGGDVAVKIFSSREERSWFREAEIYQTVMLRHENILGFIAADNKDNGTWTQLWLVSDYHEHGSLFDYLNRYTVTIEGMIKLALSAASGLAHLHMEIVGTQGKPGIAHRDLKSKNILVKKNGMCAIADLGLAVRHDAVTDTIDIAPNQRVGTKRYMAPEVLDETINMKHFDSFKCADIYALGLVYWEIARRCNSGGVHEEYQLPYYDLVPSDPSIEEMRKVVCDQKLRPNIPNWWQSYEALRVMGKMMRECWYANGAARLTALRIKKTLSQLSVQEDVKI
The experiment is described as follows: cell-based or functional assay.

B1: activin-A S57A (ligand, human, UniProt P08476 311-426, looked up)
chain: GLECDGKVNICCKKQFFVSFKDIGWNDWIIAPSGYHANYCEGECPSHIAGTSGSSLAFHSTVINHYRMRGHSPFANLKSCCVPTKLRPMSMLYYDDGQNIIKKDIQNMIVEECGCS
Molecule B1 gave a % Activin Activity (A3-luciferase assay in 293T cells) (% of wild type activin-A) of 101.

B2: activin-A I105A (ligand, human, UniProt P08476 311-426, looked up)
chain: GLECDGKVNICCKKQFFVSFKDIGWNDWIIAPSGYHANYCEGECPSHIAGTSGSSLSFHSTVINHYRMRGHSPFANLKSCCVPTKLRPMSMLYYDDGQNIIKKDAQNMIVEECGCS
On to B2, for which the % Activin Activity (A3-luciferase assay in 293T cells) (% of wild type activin-A) is 86.

B3: activin-A H65A/M68A (ligand, human, UniProt P08476 311-426, looked up)
chain: GLECDGKVNICCKKQFFVSFKDIGWNDWIIAPSGYHANYCEGECPSHIAGTSGSSLSFHSTVINAYRARGHSPFANLKSCCVPTKLRPMSMLYYDDGQNIIKKDIQNMIVEECGCS
B3 had a % Activin Activity (A3-luciferase assay in 293T cells) (% of wild type activin-A) of 82.

B4: activin-A S57P (ligand, human, UniProt P08476 311-426, looked up)
chain: GLECDGKVNICCKKQFFVSFKDIGWNDWIIAPSGYHANYCEGECPSHIAGTSGSSLPFHSTVINHYRMRGHSPFANLKSCCVPTKLRPMSMLYYDDGQNIIKKDIQNMIVEECGCS
B4 registered a % Activin Activity (A3-luciferase assay in 293T cells) (% of wild type activin-A) of 83.

B5: activin-A A31Q (ligand, human, UniProt P08476 311-426, looked up)
chain: GLECDGKVNICCKKQFFVSFKDIGWNDWIIQPSGYHANYCEGECPSHIAGTSGSSLSFHSTVINHYRMRGHSPFANLKSCCVPTKLRPMSMLYYDDGQNIIKKDIQNMIVEECGCS
B5 gave a % Activin Activity (A3-luciferase assay in 293T cells) (% of wild type activin-A) of 84.

B6: activin-A P45A/S46A/H47A/I48A (ligand, human, UniProt P08476 311-426, looked up)
chain: GLECDGKVNICCKKQFFVSFKDIGWNDWIIAPSGYHANYCEGECAAAAAGTSGSSLSFHSTVINHYRMRGHSPFANLKSCCVPTKLRPMSMLYYDDGQNIIKKDIQNMIVEECGCS
Turning to B6, the % Activin Activity (A3-luciferase assay in 293T cells) (% of wild type activin-A) is 91.

B7: activin-A L92A (ligand, human, UniProt P08476 311-426, looked up)
chain: GLECDGKVNICCKKQFFVSFKDIGWNDWIIAPSGYHANYCEGECPSHIAGTSGSSLSFHSTVINHYRMRGHSPFANLKSCCVPTKLRPMSMAYYDDGQNIIKKDIQNMIVEECGCS
With B7, the % Activin Activity (A3-luciferase assay in 293T cells) (% of wild type activin-A) came out at 35.

B8: activin-A W25A (ligand, human, UniProt P08476 311-426, looked up)
chain: GLECDGKVNICCKKQFFVSFKDIGANDWIIAPSGYHANYCEGECPSHIAGTSGSSLSFHSTVINHYRMRGHSPFANLKSCCVPTKLRPMSMLYYDDGQNIIKKDIQNMIVEECGCS
Regarding B8, the % Activin Activity (A3-luciferase assay in 293T cells) (% of wild type activin-A) worked out at 73.

B9: activin-A H59P (ligand, human, UniProt P08476 311-426, looked up)
chain: GLECDGKVNICCKKQFFVSFKDIGWNDWIIAPSGYHANYCEGECPSHIAGTSGSSLSFPSTVINHYRMRGHSPFANLKSCCVPTKLRPMSMLYYDDGQNIIKKDIQNMIVEECGCS
With B9, the % Activin Activity (A3-luciferase assay in 293T cells) (% of wild type activin-A) stood at 85.

B10: activin-A T61P (ligand, human, UniProt P08476 311-426, looked up)
chain: GLECDGKVNICCKKQFFVSFKDIGWNDWIIAPSGYHANYCEGECPSHIAGTSGSSLSFHSPVINHYRMRGHSPFANLKSCCVPTKLRPMSMLYYDDGQNIIKKDIQNMIVEECGCS
Regarding B10, the % Activin Activity (A3-luciferase assay in 293T cells) (% of wild type activin-A) amounted to 78.

B11: activin-A G50A/T51A (ligand, human, UniProt P08476 311-426, looked up)
chain: GLECDGKVNICCKKQFFVSFKDIGWNDWIIAPSGYHANYCEGECPSHIAAASGSSLSFHSTVINHYRMRGHSPFANLKSCCVPTKLRPMSMLYYDDGQNIIKKDIQNMIVEECGCS
As to B11, the % Activin Activity (A3-luciferase assay in 293T cells) (% of wild type activin-A) was 83.

B12: A/C-1 chimeric activin A/activin C protein (ligand, human, UniProt P08476 311-426, looked up)
chain: GLECDGKVNICCKKQFFVSFKDIGWNDWIIAPSGYHANYCEGECPLHIAGMPGIAASFHSTVINHYRMRGHSPFANLKSCCVPTKLRPMSMLYYDDGQNIIKKDIQNMIVEECGCS
On to B12, for which the % Activin Activity (A3-luciferase assay in 293T cells) (% of wild type activin-A) is 104.

B13: activin-A S55A/L56A (ligand, human, UniProt P08476 311-426, looked up)
chain: GLECDGKVNICCKKQFFVSFKDIGWNDWIIAPSGYHANYCEGECPSHIAGTSGSAASFHSTVINHYRMRGHSPFANLKSCCVPTKLRPMSMLYYDDGQNIIKKDIQNMIVEECGCS
In the case of B13, the % Activin Activity (A3-luciferase assay in 293T cells) (% of wild type activin-A) worked out at 101.

B14: activin-A Y35A (ligand, human, UniProt P08476 311-426, looked up)
chain: GLECDGKVNICCKKQFFVSFKDIGWNDWIIAPSGAHANYCEGECPSHIAGTSGSSLSFHSTVINHYRMRGHSPFANLKSCCVPTKLRPMSMLYYDDGQNIIKKDIQNMIVEECGCS
For B14, the % Activin Activity (A3-luciferase assay in 293T cells) (% of wild type activin-A) came out at 101.

B15: activin-A R69A/G70A/H71A (ligand, human, UniProt P08476 311-426, looked up)
chain: GLECDGKVNICCKKQFFVSFKDIGWNDWIIAPSGYHANYCEGECPSHIAGTSGSSLSFHSTVINHYRMAAASPFANLKSCCVPTKLRPMSMLYYDDGQNIIKKDIQNMIVEECGCS
B15 showed a % Activin Activity (A3-luciferase assay in 293T cells) (% of wild type activin-A) of 82.

B16: A/C-2.4 chimeric activin A/activin C protein (ligand, human, UniProt P08476 311-426, looked up)
chain: GLECDGKVNICCKKQFFVSFKDIGWNDWIIAPSGYHANYCEGECPSHIAGTSGSSLSFHSTVINHYRANTAAPFANLKSCCVPTKLRPMSMLYYDDGQNIIKKDIQNMIVEECGCS
As to B16, the % Activin Activity (A3-luciferase assay in 293T cells) (% of wild type activin-A) was 79.

B17: activin-A V62A/I63A (ligand, human, UniProt P08476 311-426, looked up)
chain: GLECDGKVNICCKKQFFVSFKDIGWNDWIIAPSGYHANYCEGECPSHIAGTSGSSLSFHSTAANHYRMRGHSPFANLKSCCVPTKLRPMSMLYYDDGQNIIKKDIQNMIVEECGCS
B17 returned a % Activin Activity (A3-luciferase assay in 293T cells) (% of wild type activin-A) of 83.

B18: A/C-2.1 chimeric activin A/activin C protein (ligand, human, UniProt P08476 311-426, looked up)
chain: GLECDGKVNICCKKQFFVSFKDIGWNDWIIAPSGYHANYCEGECPSHIAGTSGSSLSFHTAVLNHYRMRGHSPFANLKSCCVPTKLRPMSMLYYDDGQNIIKKDIQNMIVEECGCS
In turn, B18 gave a % Activin Activity (A3-luciferase assay in 293T cells) (% of wild type activin-A) of 81.

B19: activin-A F58A/H59A (ligand, human, UniProt P08476 311-426, looked up)
chain: GLECDGKVNICCKKQFFVSFKDIGWNDWIIAPSGYHANYCEGECPSHIAGTSGSSLSAASTVINHYRMRGHSPFANLKSCCVPTKLRPMSMLYYDDGQNIIKKDIQNMIVEECGCS
On to B19, for which the % Activin Activity (A3-luciferase assay in 293T cells) (% of wild type activin-A) was found to be 126.

B20: activin-A M91A (ligand, human, UniProt P08476 311-426, looked up)
chain: GLECDGKVNICCKKQFFVSFKDIGWNDWIIAPSGYHANYCEGECPSHIAGTSGSSLSFHSTVINHYRMRGHSPFANLKSCCVPTKLRPMSALYYDDGQNIIKKDIQNMIVEECGCS
For the molecule B20, the % Activin Activity (A3-luciferase assay in 293T cells) (% of wild type activin-A) was 74.

B21: A/C-2.2 chimeric activin A/activin C protein (ligand, human, UniProt P08476 311-426, looked up)
chain: GLECDGKVNICCKKQFFVSFKDIGWNDWIIAPSGYHANYCEGECPSHIAGTSGSSLSFHSTVLNLLKMRGHSPFANLKSCCVPTKLRPMSMLYYDDGQNIIKKDIQNMIVEECGCS
B21 had a % Activin Activity (A3-luciferase assay in 293T cells) (% of wild type activin-A) of 107.

B22: activin-A V62P (ligand, human, UniProt P08476 311-426, looked up)
chain: GLECDGKVNICCKKQFFVSFKDIGWNDWIIAPSGYHANYCEGECPSHIAGTSGSSLSFHSTPINHYRMRGHSPFANLKSCCVPTKLRPMSMLYYDDGQNIIKKDIQNMIVEECGCS
The molecule B22 came in with a % Activin Activity (A3-luciferase assay in 293T cells) (% of wild type activin-A) of 64.

B23: activin-A S90A (ligand, human, UniProt P08476 311-426, looked up)
chain: GLECDGKVNICCKKQFFVSFKDIGWNDWIIAPSGYHANYCEGECPSHIAGTSGSSLSFHSTVINHYRMRGHSPFANLKSCCVPTKLRPMAMLYYDDGQNIIKKDIQNMIVEECGCS
B23 showed a % Activin Activity (A3-luciferase assay in 293T cells) (% of wild type activin-A) of 59.

B24: activin-A S52A/G53A/S54A (ligand, human, UniProt P08476 311-426, looked up)
chain: GLECDGKVNICCKKQFFVSFKDIGWNDWIIAPSGYHANYCEGECPSHIAGTAAASLSFHSTVINHYRMRGHSPFANLKSCCVPTKLRPMSMLYYDDGQNIIKKDIQNMIVEECGCS
Consider B24, for which the % Activin Activity (A3-luciferase assay in 293T cells) (% of wild type activin-A) was determined as 99.

B25: activin-A N76A/L77A/K78A/S79A (ligand, human, UniProt P08476 311-426, looked up)
chain: GLECDGKVNICCKKQFFVSFKDIGWNDWIIAPSGYHANYCEGECPSHIAGTSGSSLSFHSTVINHYRMRGHSPFAAAAACCVPTKLRPMSMLYYDDGQNIIKKDIQNMIVEECGCS
B25 came in with a % Activin Activity (A3-luciferase assay in 293T cells) (% of wild type activin-A) of 82.

B26: activin-A S60A/T61A (ligand, human, UniProt P08476 311-426, looked up)
chain: GLECDGKVNICCKKQFFVSFKDIGWNDWIIAPSGYHANYCEGECPSHIAGTSGSSLSFHAAVINHYRMRGHSPFANLKSCCVPTKLRPMSMLYYDDGQNIIKKDIQNMIVEECGCS
In turn, B26 returned a % Activin Activity (A3-luciferase assay in 293T cells) (% of wild type activin-A) of 97.

B27: activin-A A49G (ligand, human, UniProt P08476 311-426, looked up)
chain: GLECDGKVNICCKKQFFVSFKDIGWNDWIIAPSGYHANYCEGECPSHIGGTSGSSLSFHSTVINHYRMRGHSPFANLKSCCVPTKLRPMSMLYYDDGQNIIKKDIQNMIVEECGCS
For B27, the % Activin Activity (A3-luciferase assay in 293T cells) (% of wild type activin-A) came out at 82.

B28: A/C-2.3 chimeric activin A/activin C protein (ligand, human, UniProt P08476 311-426, looked up)
chain: GLECDGKVNICCKKQFFVSFKDIGWNDWIIAPSGYHANYCEGECPSHIAGTSGSSLSFHSTVINHLKANTHSPFANLKSCCVPTKLRPMSMLYYDDGQNIIKKDIQNMIVEECGCS
Molecule B28 registered a % Activin Activity (A3-luciferase assay in 293T cells) (% of wild type activin-A) of 87.
